The results in this text go back to paper PMC6128908, “Potent PDZ-Domain PICK1 Inhibitors that Modulate Amyloid Beta-Mediated Synaptic Dysfunction” (Scientific Reports, 2018).

For test [1], the target named is T1, PSD95 protein (domains 1–2 in tandem; aminoacids 61–249) (UniProt P78352 61-249).
T1 construct: PSD95 (postsynaptic density 95), PDZ domains 1-2 in tandem, amino acids 61-249; also called postsynaptic density 95 (PSD95) PDZ 1–2; source: E. coli, purified
The test can be described thus: fluorescence polarisation; competition FP: FITC-labeled peptides fixed at 5 nM, non-saturating protein concentrations (PICK1 600 nM; PSD95 PDZ 1–2 8 µM; Shank3 8 µM), unlabeled peptides or compound varied; normalised to binding and tracer-only controls. Conditions: both partners purified. A general note: Polarisation of emitted light reports the rotation of a fluorescent probe.

Test [2] has as its target T2, His-MBP PICK1 construct (amino acids 1–356) (UniProt Q9NRD5 1-356).
T2 construct: it is used here for both assays; Details of the construct are in Supplemental Methods; also called truncated, dimeric form of PICK1 lacking the last 59 residues; source: baculovirus expression, purified (Nickel chromatography, size exclusion chromatography)
The test can be described thus: FRET or BRET; high throughput screen with a FRET-based readout: His-MBP PICK1 (1–356) and FITC-labelled 9 amino acid GluA2 C-terminal peptide; compounds at 50 μM. Conditions: both partners purified. On the technique in general: In BRET a luciferase serves as donor, and the signal depends on an acceptor being close.

Where no end group is shown, it is not given here.

T2 sequence (Q9NRD5 1-356): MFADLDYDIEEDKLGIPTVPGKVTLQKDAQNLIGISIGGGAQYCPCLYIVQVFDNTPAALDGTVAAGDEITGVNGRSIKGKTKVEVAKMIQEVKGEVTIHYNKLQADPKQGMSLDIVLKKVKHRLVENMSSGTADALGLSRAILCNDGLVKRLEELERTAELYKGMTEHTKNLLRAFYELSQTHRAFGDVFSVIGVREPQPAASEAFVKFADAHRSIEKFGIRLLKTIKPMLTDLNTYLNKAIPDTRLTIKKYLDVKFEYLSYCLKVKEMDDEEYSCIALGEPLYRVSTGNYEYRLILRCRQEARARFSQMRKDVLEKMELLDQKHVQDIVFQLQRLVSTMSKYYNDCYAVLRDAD
T1 sequence (P78352 61-249): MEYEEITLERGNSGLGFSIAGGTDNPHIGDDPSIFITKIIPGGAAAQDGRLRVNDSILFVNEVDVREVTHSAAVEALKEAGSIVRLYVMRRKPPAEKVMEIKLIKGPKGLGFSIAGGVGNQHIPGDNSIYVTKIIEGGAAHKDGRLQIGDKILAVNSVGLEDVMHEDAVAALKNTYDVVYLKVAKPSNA

B1: FITC-labeled GluN2B peptide (N-methyl-D-aspartate receptor subunit 2B, 1474–1482) (peptide)
peptide: KLSSIESDV
modifications: also: FITC label, position not given here
notes: N-methyl-D-aspartate receptor subunit 2B (GluN2B), C-terminal amino acids 1474-1482
Consider B1, for which the binding result in test [1] is “binds”.

B2: FITC-labeled 9 amino acid C-terminal peptide of GluA2 (875–883) (peptide, UniProt P42262 875-883, looked up)
peptide: VYGIESVKI
modifications: also: FITC label, position not given here
notes: AMPA receptor subunit GluA2, C-terminal 9 amino acids, residues 875-883; also called GluA2 peptide; Fluorescein isothiocyanate-labeled peptide comprising the C-terminal amino acids of GluA2
With B2, the binding result in test [2] is “binds”.
